Square brackets hold non-standard residues; d marks the D form. Ends that are not written are not given here. pT = C[C@@H](OP(=O)(O)O)[C@H](N)C(=O)O; pS = N[C@@H](COP(=O)(O)O)C(=O)O

For two molecules, binding result and Kd results are on record in article PMC12331092, “An arginine switch drives the stepwise activation of β-arrestin by CXCR7” (PLOS Biology, 2025).

Holding throughout (conditions): both partners purified
Assay [1] addresses T1, Rattus norvegicus wild-type β-arrestin2 (Rattus norvegicus, UniProt P29067 1-410).
T1 construct: β-arrestin2, Rattus norvegicus, UniProt P29067, cloned into pET-28a; also called βarr2; wild-type βarr2; source: E. coli BL21(DE3)pLysS, purified (Ni-sepharose, HiTrap heparin, Superdex 200 gel filtration); not shown: His6, N-terminal, kept
Kind of assay: ITC; 1 mM peptide injected (2.5 μL, 200 s intervals) into 200 μM βarr2 in the cell; 298 K; 20 mM HEPES pH 7.0, 200 mM NaCl; two-site model for the wild type. A general note: Isothermal titration calorimetry measures the heat released or taken up as one component is titrated into another.

For assay [2], the target named is T2, βarr2 R166A mutant (Rattus norvegicus, UniProt P29067 1-410, R166A).
T2 construct: β-arrestin2, rat (as the wild type m1), with R166A; also called R166A (site I); source: purified
T2 sequence (P29067 whole entry R166A): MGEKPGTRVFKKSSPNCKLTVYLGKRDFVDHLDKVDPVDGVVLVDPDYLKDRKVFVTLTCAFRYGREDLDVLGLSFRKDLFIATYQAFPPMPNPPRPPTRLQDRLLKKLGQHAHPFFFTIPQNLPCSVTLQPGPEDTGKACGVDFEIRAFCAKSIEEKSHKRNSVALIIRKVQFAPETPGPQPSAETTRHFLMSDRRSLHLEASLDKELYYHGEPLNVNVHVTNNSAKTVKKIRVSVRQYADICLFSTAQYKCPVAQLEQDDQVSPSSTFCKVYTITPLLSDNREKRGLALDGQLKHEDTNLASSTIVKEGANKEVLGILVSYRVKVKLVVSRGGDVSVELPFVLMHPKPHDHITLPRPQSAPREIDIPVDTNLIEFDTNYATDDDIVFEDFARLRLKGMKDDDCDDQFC
The description is as above.

Assay [3] deals with T3, βarr2 R394A mutant (Rattus norvegicus, UniProt P29067 1-410, R394A).
T3 construct: β-arrestin2, rat (as the wild type m1), with R394A; also called R394A (site II); source: purified
T3 sequence (P29067 whole entry R394A): as the sequence (P29067 whole entry R166A) above, with A166R, R394A counted along it
Described as above.

The target in assay [4] is T1, Rattus norvegicus wild-type β-arrestin2. Kind of assay: pull-down; 20 μg βarr2 pre-incubated with or without peptide (5:1 peptide:βarr2, 4 °C, 1 h), then GST beads with 30 μg GST-clathrin, 2 h at 4 °C; 20 mM Tris-HCl pH 8.0, 100 mM NaCl, 1 mM DTT; GSH elution, anti-His Western blot. In general terms: A western blot detects proteins with antibodies after separation by electrophoresis.

T1 sequence (P29067 whole entry): as the sequence (P29067 whole entry R166A) above, with A166R counted along it

B1: C7pp2, phosphopeptide from the carboxyl terminus of CXCR7 (residues 346-359) (peptide, UniProt P25106 346-359, looked up)
peptide: ASRV[pS]E[pT]EY[pS]ALEQ
notes: CXCR7 (atypical chemokine receptor), C-terminal residues 346-359; also called distal phospho-site cluster PxPxxP; source: synthetic peptide (NovoPep and Tufts University Core Facility)
As usually defined, the Kd is the constant that tells how readily two partners part at equilibrium. Take B1: the binding result in assay [1] was “binds”. The equilibrium dissociation constant (Kd) in assay [2] came out at 16.4 µM; in assay [3], 1.1 µM.

B2: C7pp3, phosphopeptide from the carboxyl terminus of CXCR7 (residues 346-362) (peptide, UniProt P25106 346-362, looked up)
peptide: A[pS]RV[pS]E[pT]EY[pS]ALEQ[pS][pT]K
notes: CXCR7, C-terminal residues 346-362; source: synthetic peptide (NovoPep and Tufts University Core Facility)
As to B2, the binding result in assay [4] is on record as “binds”.
